In series [1] the target is T1, Tth SSB (Rev 101) (Thermus thermophilus HB8, UniProt Q5SLP9 SEQ:21-283).
T1 sequence: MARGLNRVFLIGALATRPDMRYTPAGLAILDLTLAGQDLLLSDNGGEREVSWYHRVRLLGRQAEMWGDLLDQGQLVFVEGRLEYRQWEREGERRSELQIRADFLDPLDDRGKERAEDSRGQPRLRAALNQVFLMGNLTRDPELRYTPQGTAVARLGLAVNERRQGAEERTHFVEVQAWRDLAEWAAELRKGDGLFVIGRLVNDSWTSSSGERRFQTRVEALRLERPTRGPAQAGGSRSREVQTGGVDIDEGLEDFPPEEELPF
As to the kind of experiment: EMSA; Kd value only in FIG. 12; 50 mM Tris pH 7.5, 50 mM NaCl, 0.1 mM DTT, 60 C 10 min; 0.25 nM oligo; protein 0.1-4 uM. The note with it: chain copies: 2 (inferred); label: 5'-FAM. Here is the method: (§1) An electrophoretic mobility shift assay was used to determine the binding affinity (Kd) for the Tth F255P SSB and Tth SSB. An oligonucleotide of 35 bases labelled at the 5′ end with fluorescein (FAM) dye was used as the substrate. The sequence of the oligonucleotide is 5′ FAM GTGTAGATCTCGGTGGTCGCCGTATCATTAAAAAA (SEQ ID NO: 14). A titration of Tth F255P SSB or Tth SSB was used ranging from 0.1 to 4 μM. The reaction buffer was 50 mM Tris pH 7.5, 50 mM NaCl, and 0.1 mM DTT with each reaction utilizing […] of labelled oligonucleotide. The reactions were incubated at 60° C. for 10 minutes. The reactions were resolved on 10% acrylamide native TBE gel and imaged with Typhoon Scanner. The fraction of bound versus unbound for each concentration tested was determined and fitted for Kd analysis.

Series [2] has as its target T2, Tth SSB F255P (Rev 101 F225P) (Thermus thermophilus HB8, UniProt Q5SLP9 SEQ:21-283).
T2 chain: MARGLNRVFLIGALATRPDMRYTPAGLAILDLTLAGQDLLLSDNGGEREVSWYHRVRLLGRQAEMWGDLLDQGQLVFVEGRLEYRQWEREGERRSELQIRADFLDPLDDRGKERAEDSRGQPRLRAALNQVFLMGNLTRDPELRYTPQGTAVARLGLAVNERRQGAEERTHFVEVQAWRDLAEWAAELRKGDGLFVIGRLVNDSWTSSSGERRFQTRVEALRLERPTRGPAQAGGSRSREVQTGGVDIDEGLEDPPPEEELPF
The description is as above. The settings on record: chain copies: 2 (inferred); label: 5'-FAM. Here is the method:
as §1

The results in this text go back to patent US20250215491, “SEQUENCING WITH SINGLE-STRANDED BINDING PROTEINS” (ILLUMINA, INC., published 2025).

Regarding GTGTAGATCTCGGTGGTCGCCGTATCATTAAAAAA (ssDNA) [5'-FAM 35-mer oligonucleotide], the binding result in series [1] and in series [2] was “binds” throughout.
